Experimental data: article doi:10.1101/2020.01.06.896332 (bioRxiv, 2020)
“And” between values parts separate entries of the source, which are not always exact repeats. Identical values can stand only once.

Biological target: the molecule itself
Assay: SEC

B1: human diacylglycerol O-acyltransferase-1 (enzyme, UniProt O75907 1-488, looked up)
chain: MGDRGSSRRRRTGSRPSSHGGGGPAAAEEEVRDAAAGPDVGAAGDAPAPAPNKDGDAGVGSGHWELRCHRLQDSLFSSDSGFSNYRGILNWCVVMLILSNARLFLENLIKYGILVDPIQVVSLFLKDPYSWPAPCLVIAANVFAVAAFQVEKRLAVGALTEQAGLLLHVANLATILCFPAAVVLLVESITPVGSLLALMAHTILFLKLFSYRDVNSWCRRARAKAASAGKKASSAAAPHTVSYPDNLTYRDLYYFLFAPTLCYELNFPRSPRIRKRFLLRRILEMLFFTQLQVGLIQQWMVPTIQNSMKPFKDMDYSRIIERLLKLAVPNHLIWLIFFYWLFHSCLNAVAELMQFGDREFYRDWWNSESVTYFWQNWNIPVHKWCIRHFYKPMLRRGSSKWMARTGVFLASAFFHEYLVSVPLRMFRLWAFTGMMAQIPLAWFVGRFFQGNYGNAAVWLSLIIGQPIAVLMYVHDYYVLNYEAPAAEA
stoichiometry N: 2 and 4
